# Results reported in PMC10721955.
# Biological target: Flag-tagged mouse MRTF-A (MAL fl), in vitro translated
# Assay: in vitro protein binding assay (IP/IB of in vitro translated tagged proteins), quantified
# Conditions: IP: HA-gel (HA-CRP2), three independent experiments, parent: 100, read off a plot
substance,measurement,value
"HA-tagged human CRP2 (cysteine-and glycine-rich protein 2), in vitro translated (from UniProt Q16527) 153L/D; 158L/D",percent of parent,22%
"HA-tagged human CRP2 (cysteine-and glycine-rich protein 2), in vitro translated (from UniProt Q16527) 154E/L; 156T/D; 157T/D",percent of parent,21%
